Values quoted from earlier work as cited in article PMC5726918.

Target: Asp3 (position 3, ---AADAA---)
Experiment: potentiometry
Conditions: free peptide in solution

B1: Alanine-based pentapeptide AADAA (terminally blocked, uncharged) (synthetic) (peptide)
chain: AADAA
In the case of B1, the pKa is listed as 3.9.
